From the NTF2 design screens of Basanta et al. (2020)

Assay: protease stability score; higher = more stable; yeast display proteolysis, trypsin and chymotrypsin;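 further: log10 excess protease needed over predicted unfolded state with 0 meaning unfolded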

Sequence	protease stability score
DQRLWERFVKDLEENDEKSWQDLVDKDAKVEVGDTSYQGREHALTAIQKWVHQVDHVEIKSYRIHGDNVQIRMEVVINGRKMQVTVQAHLHNGKMKNIHMEATDRHVVEKLRELIS	0.039
DQRTREKVAEDIDNNDPQKLQDQADENVRVEYGNKVVHGREQMQEWARSLKDDVDSLEVDHVELDGDKIDARVNFNVNGRRVVFTIEADAHNGTIQRLRMTVTSEEQDTHMKQAAN	-0.209
DQSELRDFVEEFLEIFRHGNEDDARRLVDKDATAKVGDKTYNGEEQVLDFLKQLRNRADHVQIDTFRVEGDKMEAHMRLNVNGKTVQVVIQAEVRNGRIKHFRMDPNDLRKLEK	0.657
DQTALKVFKEYLEVVLNGDEHEAVELVDKDVRMNVGDKRWHGQEHIEREIRNQTRHSRLDYDHVRFEDDGDKAVFKRTVRFTHNGKPDSSRNVMHATADNGRIKSMKVEDDR	-0.334
DQTDEAEKWMEHITRVLHHNDTDQMLELADENVKIDIGDKTYHGREQFSQLLRDIAERVDHFSQRIDSIRVNGDKVRIDFKNVLDHNGRKHSQQVVVEINRTNGQWRLKSLHKK	0.151
DRDDFRRVIHEVQKALKHGDREQLRRLLDENAKVKVGDKEYQGDERAVKVMTTIANKADRMEYKDIHLHGDSVYINVVLNHNGKKDTVVWVIAVNNGKVQFFAQETR	1.01
DRDEVHHLHELYKAIEDGDDKKAQDLMDENAKARIGDKHFRGMQHFVETLKKEKDHMRVKIDNMRFTERPNRVVVNIEVKRSNNGEPESEVYRAFADAHNGKFVNLVIEHNQ	-0.056
DRDKERKVIEKLMNALQNNDENQIRKLIDPNARLVYGDKELHGREEVVKFLVTLLNQVDRIEYKSYDFHNGHANIDFTLRFNGQNATFTMEIRVKNGRVDHITLDPQQINRMNS	0.885
DRDLNRHVKRFMDIIQNGDPDKAMEMVDPNVEFHVGDKRVHGQEELRELIKKEHDEQRKEIDDMRYDDRGSKAKINIEVRVEHNGRPNTVREDWNVEAKNGKIKRMNAKVDQ	-0.495
DRDQEDSFAKKVADVIQTGNPDDMRKLADEDARVDVGDKQYTGREHVDEAVENERKRIDHQQINSFSVNNGQIHATVSYVHNGQTHRFVVNVEIHNGHIKRARWQSK	0.273
DREAKKRADQYMEVIQNGDPEKFKHQADENVRVEVGNHEYHGRESMAKELKKRRDEIRIDIRRYSIDNQGEKVRIEVDAVAQINGRPRTYSYVFEMTFQNGRIKKFTLQISEDDEQNLKS	0.014
DREAKNVFEKLTKAFETGNEDDMRKLLDEDVRFNIGDREVHGREQAVEDLKRKRTQMRVDIHHVDQQNEPNRLSVNVRMVVEHNGRPRDVQRHAVFDVHNGRIKSVKEKDRQ	-0.238
DREDESELAMRAAVNAATGNEDEVSKNADPNVRAIYGDKNYDGTENMKDVIRQVRERIDHIELKSFEQHGDHAVARAEAKHNGDESTLVVTARAENGRVKSMRFEIR	-0.275
DREDHEHARTVFHNLQTGDFEEVKSLLDKNAKLTVGDRVLEGRDEIARQIRNELEEIRVEYVSVTFTVEGDKAQVHMVFKAEWNGNPADVRNVLRISQHNGRIKTMFIQISESQLEEYNR	0.287
DREDLAREMVERLEDIMKHNNEKELVNQMDENVRMTIGDKEYEGREAATKEAHDLFRRADHLRLSVETFNVQGDKAVITFQVVFNHNGRKSHDRVILDFRISGDKVKLVSQTKG	0.509
DREDNEQVKKILETNDFHRLAEQADKDAKAVVGEKRYHGREHVREALLRLQKQADHLEIDSMDTSGDKVVMRAKLKINGKTMDVTFDVVVHNGRLQHFEMSATTEDDERIQRTANS	0.743
DREDQEEVARHLVEVLERGDPQKMLELADPNVRAEVGDKRYHGREDLKSIMDELSRQVDRIQVVHLDVKGNTVRVTVKNRVNGVVVDLVIIFHFRNGKLRDVTIDARNEEQLKKREG	0.754
DREDTAREAAHEAIKIWKTGDPEKLKELFDPNVKVKIGDRTVHGREELVRQIRHEREQVDHLSFDLEDYKMDGDQMHVVVRFTANRNGRRTEDKQVYNASFHNGQFRIHEMNKK	-0.356
DREEAKKIRKNWETNNWDHFAHQADENVRVRVGDKKYHGHHKLLEIMHQIEKRIDHARFDHIDLDGEKLTVDFQMVVNGKKVRYVMFIKVSNGRIKEVNIQFTSEEEERRAQEALR	0.732
DREEAKKVAEKAAKYFQNWNVEQLLKLIPDGGKYRIADEERHGPDVIKEVVEKQQRMGLEVEVKEVHAEGDTVHTVLDYRLGDTTATVHIQAKVQGGRIDEVQVDIPEEAQKMLKQG	0.401
DREEHASQLFRDMQEVYHNNDPSKFKHLVDENVTRDVGDKTVHGQDEMAREMEKEARRVDKVRFDVRDVKSNNGRIKVRFVVTHNENGRERSSDVTVRFQVSNGRLVIESQTET	-0.206
DREEKVREALETLQKAFRTGDPRLFVEQLDPNVRIEVGDKTVHGREQASEWAKRMRDKFDHFEVKIHDMSVQGDKFSVKVSLRQDVNGTDVQRDNHYTIVFHNGRVHVQNINNK	0.644
DREEQKKVAKHMDDLVRTGDPREATDLIDPNAKADVGDKQYHGREQLHKLFKEQHERADHADLKSFDAHNGKVEVNVIIQVNGRRHRVIYHADADNGRVKFVSVRSS	-0.164
DREEQSEFAKKFLEVVMHGDPKKIRKLADPNAKADVGDKKYHGRESMAKWAHDFRKEVDHIEFKDLKVDGETARLDVVYDVNGHKERQVVVVTAHNGRVKHMQVEEG	-0.18
DREERARQLLRELLKALETGDEDTAANQADPNVRVSVGDRTYHGREQYRTFLRKVAERVDHLEVRVDRVTQDNGQIHMDMTVRHEKNGRTHRKEFVIQIDVQGDKNRFVQMRHK	-0.163

Sequence	protease stability score
DREERHRAEQWLNAIKTNNPDDVVEQADKDVRLEVGEERVSGRSELRKEVDKDRKRWDFEIDHVDIKVHNGRIHMTVDVVVRHNGKPDKQEQEYTIEFSNGRARTIVARQNK	-0.229
DREERKKIAQTILKIFETGDHKKFKRQIDPNVEVVVGDRTYKGRTQATKAFNEIQEKVDEVDVKTVHYKGDHAIVDAVLVINGRRVTVYFHLTIHNGRVKSISMQFRDEEDERKFRG	0.367
DREEVKKIKRLIETNDWRTLAQQADENVEIVYGNKTIHGREQALKFWDILRKHADHIEIKRFDNQGDKVRVNMTVEVNGRHITMNMNIVFHNGRLKEVEIRVTDEKQLKEIEDLVQ	1.59
DREEVRQVDQWMKNQQRNNPDELVKLADPNVEFRIGDKTVHGMRRYADDVRRKREHIRLEFKHMKIEDQNGRVILRAKAQREHNGKPETFTMQITFEAHNGRIKKAVITTQK	0.044
DREIQHQVTELLEARRRGDEKRLQQNFDPNARMRIGDKEWHGMDTAAEEIAHEQREMRFDVKSIEVRVSGNKVSVDNRYVLEHDGRPHEFVQHDDVEMSNGKFKTAEVKHDG	-0.408
DREKEAHELIEHFVRMLETGDEEKFKEMMDKDAKLHVGDKDVHGRDDVDRHLAQEYKQYDHVHFRVKDVKVRGDTIEAQVEVQFDHNGKTDTRTYRFVMRVDNGDVKFQSVSNS	1.45
DREKQSEISTMMQKGDPQHLVDLADENAHVEIGNKRVHGRNQIKEYADRFHERVDHYSVRSIEIEGDTVTVTAYFVVNGQNIEWTMQMQNHNGKVKRIRVRFTNEELEKQLDKALS	0.846
DRELNQLFRDYVHALKTGDEDELRKQADPNVRIEIGDKEWHGMEKIATEQKKRHDEIRVQIDVKEVSVHNGRVEAELEVVDQQNGRPEKRKVTVTAEYENGKLQHQRYQSDG	-0.442
DRELRQNLHEFWKQQETGNPDELRKMVDPNARIVIGDKTYSGMDNAAQRMAESNQELSVDIKRLDLQASNGRVTIKLDAVKNHNGQPSRKTVTQTIRIHNGRIKHISMREDG	-0.448
DREMLKDVKRLLEVINKGNEDEMRKMVDPNAKFVIGDKEITGREEFAKQMKRHKDEIRIDIKVKHLTAKGNRATVRATATRDHNGQPQSFKVTMRVTFSNGKVKKVHYDYTK	0.065
DREQAERLIRIMENERTGDPDKVVEMVDPNAKFKVGNTTYKGREELRKEVETRQKKARFEMSIQDYSVHGDTASIRYTLVINVNGQPHESTFNLEARFHNGKVRELHVKFDEQRMRDIQS	0.49
DREQQHVAREFLEAHNEGDEDRMVQLADPNARVHVGDKEVHGREELKKWVRDVEKKMNVQIDVRSIHAHNGKIRITARISFKINGEPRSDRIRFDFRAHNGTLKDFHLKVSEEQRKKKQQ	0.075
DRERLADELRRRLEKVMTTGDPTELDKLMDPNARILYGDQKFHGREHVKEFAKTLNDQYDHVTIRLVSYDIKNGEIHIVVDVVFRHNGQTRTKRINFVARVHGDKVKIESINIP	1.3
DRERQKKNLKDFVDALTKGDPDQVVKQFDKDARVRVGDKQVEGRDQIREFAKEWSKHVDRFRITEMRVHNGRLDIQAEQHHNGRKRRIQVEVNWHNGQIKNMQWTHG	1.4
DRERRHEFATEVVENLKQGDWKRLVEQADKDVTADIGDTKYKGRETFSKWAQQFVRRVDRVEIVDMRLDGDEVRINMDVKHNGQTRRSVFIARWHNGRIKHFRIETG	1.62
DREVIKLAKRMITALQKGDHQKFVNLLDPNVRIDVGDKEVHGQEEAQERLREETRQIRVDNHVKTIDDNNGRANFKMSVNAQVNGKPVHYEVNAVVHAHNGKARRLHIKVPEEDKRHLDR	0.034
DREVLKEFLKQFHEGNFHEVARMADPNAEVEVGDKTVEGREHLITLHKHIHDKADHASIHRVEIHNGRINVELTVNFNGTNVVYRFTLEAENGKLKNINYRARDSDQKRILKRLWG	0.091
DREVQEHIEQFWKVYRTGDEKRIVELLDPNVKFDYGDRTVEGRETVREEVKKHHDEQRVDFKSVDVKVTNGRIDVKVRAKYHHNGTPDEQKFTASASLNNGRVKHMSRQTSK	-0.181
DRHDMHKLEEIWKAIQTGDKDRVKELADPNAEFNVGDKTYHGMDQYITDLKKKRDQMRVHLELQSLDVKNGRARAVAVLRNEHNGTPDQRKFKVNATFRNGRLQHLKLQELS	0.021
DRHERKKVAKDFNEALETNDHEQLMEQMDPNARIKYGDKHYHGREDLRRFWKKLVDSVDHITVDKMQVRGEEVVVLAKAESNGRNETFRLVMEFHNGRIKFVRKDTP	0.132
DRKAEKLLEDLLDARRTNDEKKLQDLMDPNVKVDVGNKHYEGRERNAKSYAQEYKQMRLEIRVKSIHNNGNHVIQTFDADVRINGKPIRFRAQMMLHFHNGRVQHVYLRLDPSVEQHRRD	0.218
DRKAKEFAETLYDIFQRGNFENFLELIDKNVTVDVGDRTLHGRQAHEFAKEFQKEQLKVEVDDWHVDNQGEKVRITMTFVLHVNGRPQKQRQEQRFHLHNGRIKSLQVKTDE	-0.156
DRKLEEVFRKWLKAQKEGNPEVARKNADKDAKIVIGDTQIHGRDEMAEKVRHRKKHLQVDIKIKRMQIQGDKIKIKFEVVENHNGKPEKYKATAFARASDGNFKEMQVNKTG	0.12
DRKTEKDAIERARTALQDGDPQQAFDLFDENAKIVVGDQEYHGREQVSTAVEEFRKEIDHFEVERVSVHNGHATIDARVEHNGRSDDVTFHVTVHNGQVREAQVRTK	-0.213
DRNANKLATKVFTAYNRNNPKQLVENLDPNAELSYGDKEYHGRENMKKMVEDIKREMQLSIHIDHVDVHNGQARVEFVQENEHNGQPSRKHYVAHFDHENGRVKKLVFKESG	-0.106
